From the DeepSol protein solubility set come the findings set out here.

The data set in a line: soluble on expression in E. coli; label from the status in PepcDB or PDB records.
Take “SGAISGDSLISLASTGKRVSIKDLLDEKDFEIWAINEQTMKLESAKVSRVFMTGKKLVYILKTRLGRTIKATANHRFLTIDGWKRLDELSLKEHIALPRKLESSSLQLSPEIEKLSQSDISWDSIVSITETGVEEVFDLTVPGPHNFVANDIIVHASI”: the “soluble on expression in E. coli” value is on record as “soluble”.
As for “MSLGKKLKIFFIDDDIALGHICTRIMQEEGYEVLYQTSLNGAKACIVETHPDMIVLDVEIGNKNGIEAVPELKAIAPNTPILFISSHTNSQLVVQALSAGAVAYLKKPLEIDELIAYIKRYAISHPYQIKIGSLLLDTDTQLLCTKELRVIKQLSEAEYKLLKLLVAYKEQLVERRQIEEELWGKVNGNEQGINNLISKLRKYLSIDPTIELVTIPRNGYKLSVNLSEGHHHHHH”, the entry is “soluble”; as for “MGSDKIHHHHHHMRKKSLTLLSDGYLFRKENTIYFENARGKKPLAIEGIYDIYIYGKVSISSQALHYLAQKGIALHFFNHYGYYDGSFYPRESLHSGYLVVNQVEHYLDKDKRLELAKLFIIGGIKNMEWNLLKFKNKTKFSSYIEELNNCNKITEVMNVEGRVRTEYYRLWDETLPDDFKIVKRTRRPPKNEMNALISFLNSRLYPAIITELYNTQLTPTVSYLHEPHERRFSLALDLSEIFKPMIADRLANRLVKQGIIQKKHFRDDLNGVLLNKEGMKVVLEHFNKEMDKTVNHKKLKKNVSKRRLIRLEAYKLVKHLVGQKRYEPLVAWF”, “not soluble”.
With “MGSDKIHHHHHHVILKAKVYHKVFAFKDLKEVLAKANEEKSGDVLAGIGATSASERVAAKLVLSNLTLEDLYNHPVLPYEEDEVTRVIYDGLNLRIYQEMKGWTVGQLREYILDHGTTGSHLNHISRGLTSEMIAAVAKLMSNMDLVYGSKKMRHQAHCNTTIGIPGTLAFRCQPNHPTDSVEGVMASLKEGLSYGSGDAVIGINPVEDNVDTLSRLLETVKEFMQQWEIPTQNCVLAHITTQMKAITKGVPIDLVFQSIAGTQKANEAFGISKELIDEAFALIQRNGTATGPNLMYFETGQGSEISLAAHHGVDMMTLESRTYGFGRHYRPFLLNNVSGFIGPETIYSGREVIRADLEDLFMGKLHGLPMGIAPCYTNHMKADQNDQEIATLLCAMAGANYFMGLPGGDDVMLSYQDTSYHDDAATREILGLRPLPEFEKWLEKMGIMENGQLTERAGDPSVFDK”, the “soluble on expression in E. coli” value is “not soluble”.
In the case of “MNSRQQSILQMVVDKGQMSVAELAKITGVSEVTIRQDLNTLEKQSYLRRAHGFAVSLESDDVETRMMTNYTLKRRLAEFAASLVSPGESVFIENGSSNALLARTLAEQKDVTIITVSSYIAHLLKETPCEVILLGGIYQKKSESMVGPLTRQFIHQVHFSKAFIGIDGWQADTGFTGRDMMRSDVVNAVLEKGSEAIVLTDSSKFGCVHPYPLGPLSRFHRVITDSKISASDQMQLEHAGLLVNVIGSSV”, the “soluble on expression in E. coli” value is “not soluble”.
Regarding “MGSDKIHHHHHHMERKTDSIDLAPLFHPDTIRLSRLAERLDDGPYHGGRIDPLALVITQREEATGQAGIDRYPMLQLAVGRAGMQVGQVDLGQLHPPVRSYLECRFHILKIVNLRHISIISRRNNSPEITLSHPKRQSPHALPYLCINIKKQHIMIRYKKYQNKNEKNVTTFNKWYARAVCEETVDIAALAEHMSTHNTPFSTGAIHGMLKDMVNCIKELLMDGKNVKIDDLGIFSVGIRSKGAVTPEDFSTQGNIIGVRLRARATGNLSSASLKLTAKLREYTEYSNGEVTPGGGGGDSESPDEI”, the “soluble on expression in E. coli” value is “not soluble”.
The value for “STARVICAGFGGQGVMSMGQLLTYAGMLEGKEVSWLPSYGPEMRGGTANCAVTVSNEPVGSPLITDDATAAILLNIPAFEKFKDDVIPGGKIIVNSSLIKEKVDRTDVDVYYIPANELAAELGNDKVANMIMLGAYLKVSDTVDIESVLEAFKKVFGPRKEKFVPLNREALQKGMDATC” was “not soluble”.
For the sequence “MKSKKILIVGAGFSGAVIGRQLAEKGHQVHIIDQRDHIGGNSYDARDSETNVMVHVYGPHIFHTDNETVWNYINKHAEMMPYVNRVKATVNGQVFSLPINLHTINQFFSKTCSPDEARALIAEKGDSTIADPQTFEEQALRFIGKELYEAFFKGYTIKQWGMQPSELPASILKRLPVRFNYDDNYFNHKFQGMPKCGYTQMIKSILNHENIKVDLQREFIVDERTHYDHVFYSGPLDAFYGYQYGRLGYRTLDFKKFIYQGDYQGCAVMNYCSVDVPYTRITEHKYFSPWEQHDGSVCYKEYSRACEENDIPYYPIRQMGEMALLEKYLSLAENETNITFVGRLGTYRYLDMDVTIAEALKTAEVYLNSLTDNQPMPVFTVSVGHHHHHH”, the “soluble on expression in E. coli” value is given as “soluble”.
As for “AMAISDPQSSTRNELETGSSSACPKVIYIFARASTEPGNMGISAGPIVADALERIYGANDVWVQGVGGPYLADLASNFLPDGTSSAAINEARRLFTLANTKCPNAAIVSGGYSQGTAVMAGSISGLSTTIKNQIKGVVLFGYTKNLQNLGRIPNFETSKTEVYCDIADAVCYGTLFILPAHFLYQTDAAVAAPRFLQARIG”, the entry is “soluble”; as for “GEETRTEVEKKNYMNNAEEAKDVLLGVYRTNTLDAMYGYYLSILFNLGTDISQVEGSGNENFRIIPTNSFPTTQSEVQQTWAALYTGIYRANDFLERISNKIGSYTTTDKKLATLYIAEARALRGMFYFELVRRFGNVVLMTSTQMSNQNPATYVQSAPEKVYEYIEDDLLYACDILPYATDDQYRESNDYRFSKGAALGLLTKVYATWAGYPVKDESKWEAAAKTARILVESGKHGLLKDYEQLWKNTCNGTWDPTESLIEISFYSPTVSGNSDPVGRIGKWNGVKTTAIAGVRGSCAANVKVVHTFVLDWREDVSDIRRDLSIANYQYTDTKKSLWVAGASDTDESAAEKDADPTKAQKNKQNYTPAKWDIQKYVTTNSFINNDKSNVNWYFLRYADVLLLYAEALNEWKHGPDAEAYNAINAVRRRGYGNPSNTSACDLPQGLDETSFREAVRKERSYELSFEGHRRQDLIRWGIYYKTVQATAKELGYWWEGTGSPNYSVATYTEEGKHELFPIPQRDMDLCIQFNQNPKW”, “soluble”.
As for “MLSLTAHLVLISTIIVKCSAFSKKPSERAKPAAVKKAVEDKQPVKVTAFEQASLNEDKAEAMSNIEPSPKISNSTVPTAPTPKKEKKVVATTKKTERSVAQGPPLVSEHIKDEKKMPSVHKPIRKGSIYANELLTEKPLTDTEPELHPDNHVVKAKSPKPVARTPTARHRNALKPGKINDKSDDTLHDAPSIQKVGGPSYEDAASVNEKEKDVNPK”, the entry is “not soluble”.
Regarding “KITGLLDGDRVIVFDKNGISKLSARHYGNVEGNFLSLSLVEALYLINLGWLEVKYKDNKPLSFEELYEYARNVEERLCLKYLVYKDLRTRGYIVKTGLKYGADFRLYERGANIDKEHSVYLVKVFPEDSSFLLSELTGFVRVAHSVRKKLLIAIVDADGDIVYYNMTYVKP”, the “soluble on expression in E. coli” value is “soluble”.
“MAHHHHHHMKCEVDRPVTQNTERNGSEGNVAKNYMTHLYQFQNNEMKKIDASYFENKYLGLFFGASWCRYCVTFIQNINFFKKNFPFIEIIYIPFDKTYNDYVAFLKATDFYSLPFDNYLYICKKFNIKNLPSFMIIAPNNNVLVKDAVQLIKTDTYVNNFKSLVKNYTVHPSHFKIGNRFFDLFCA”: the “soluble on expression in E. coli” value was “soluble”.
As for “MEHVAFGSEDIENTLAKMDDGQLDGLAFGAIQLDGDGNILQYNAAEGDITSRDPKQVIGKNFFKDVAPCTDSPEFYGKFKEGVASGNLNTMFEYTFDYQMTPTKVKVHMKKALSGDSYWVFVKRV”, the entry is “soluble”.
Turning to “MAHHHHHHMSHTFTDPLVDLASVSFQYPHGGGGSAGGIRDVSVRVNGGDRVLVVGHNGSGKSTLLSVIAGRRKASSGRATVLGSDAFDDTRLQQHVTLIGRPWPTEAFFATTVDQVTSQAPLPERKRSVADALHLDLGRAVSNMSSGERRRVQILHGLLQKSFVYLLDECSTDIDIAERMTVLDLVRSECVVGDSCCLYATHIFDGVSDWATHLLLMQGGMVVDFKRVSDLNAPLEVFVCHFLTRRHRGLFDHTSKRTPVKDAYNDDWKGGGTVTALPLEKEAVIVCDRLQYRNIFRNLSFTVYRGDRVLLCGCNGAGKSTLLKMMGGKQFFNNCNGSLRILGKSCYDDMTLNGLVAFGGEWWDTAPPGEMHVHEMLQLQTPRAEWLCKVLGVDLSWDVRHISTGEQKHVQLLLHLLEDKPVILLDEATSDLDLDQRQELLSFLYSESVNRGVTVVYATHIFGGLENWPTAVMMLDRTTQGLHAMWCGSDVKWAEVTRELIALK”, the “soluble on expression in E. coli” value is on record as “not soluble”.
As for “TARELLDADRGRDSMVAAAYHSGTLSGKTVTEAARQGDVFAIEVFDDFAEWMGRALSIVCDVLDPGQIVIGGGLSTSSDLFLEKATQHMAQQIVGAGYRPLPTVVCAELGGDAGMIGVSDLARRRV”, the “soluble on expression in E. coli” value is given as “not soluble”.
For the sequence “MGSDKIHHHHHHMFDPTLLHIINAHSRNPHYHKKFPIILFWSQKSGCTSLAKWFFYQIDLLQTALNYSPFIHNYEYDIYKNAPAYSLRLGIALREKQKETFKLVRNPYKRAVSSFVSLIAPPYIENPEWKPIRKFLYQDENSSKGLSFKQFLYYLLINGAQANSINPHFTQQYIADEEKYVTNYIYLENFNQDMKALEKRFELKTAPINEFSTSWHHQTPSMIYKGNFSESDITDPLFPRLPTFESFYDTECIQLVQTIFQNDFNTYKYSKEYPY”, the “soluble on expression in E. coli” value is recorded as “not soluble”.
For the sequence “MKVRADFAFEKVARDWFVRWSKGRSEKYAGQVMRNFERWVFPAIGNLDIRQVRTADVVGCLRVMEARGIVDTLRKTKNSLKMVFAFAVGSGMMEINPVAQIGSGVFERLEHHHHHH”, the “soluble on expression in E. coli” value was “soluble”.
The value for “MSLPGFEISAQFRFLLSVTALLVREEFGRAPSLGQTQSLLQNGFSSAVVEKVNQNLVSHLNVLDGLQPFMGRPRLHPEGPKDASRRIGPGDQEVKKLSPAMPSEQGEDYWNLLVEFPDSLSISEATLKIVTYHYFSMAGNNKFDGDKTRMGAPGIRFPGKGYAATEHIWIREGSSLLRSLLTSLPTSWVKGEGLPAWADRTAQKSRTGQQQFHALWEATWSSNTVVSYWEDGYLTGVRVGGIPPAWWPDIPNTKEGEKALKLWWDQRNEKDPLYFYLKNKKGEPKAQRIDFGRDGIDLAVEWAAEAKMMDLVEKTYKNVLPVDSYPTVDGDDEGIDKYQLVFFRHQVEGTASSPSIRASEVFLADRSVWAFDLSCDEQLRLRDNAQLVRDVYITLLGVFRRKSAADASREVATGWGAAVLDSLAVSQSDASDAYWRGVTDVYQKYLADLRVGEEITEELYRGIRSAALEAYDEVTAPYLAQYANEIYYVRASLVRSVNSKINTARDEGIGRIKEESNE” was “not soluble”; that for “MGSDKIHHHHHHTVDNRHDPLESMNRAVFSFNEKLDEVVLEPVARGYQRFIPSPVRMIVGNFFSNLDDVVVAANSLLQLKFMDAMASTTRIVINTTFGMLGAIDLASDISQVSDIDISKRNEDFGQTLGFYGIGSGPYLVLPILGPSTVRDTVGIGVDSTIFHPARAIYTSFDLLTVRLPVTTVEFIDRREQLLDLDKTLEEASLDKYEFVRDAYLQRRESLIKNDGAASEEEPVNFDEEEIIIDD” was “not soluble”.
The value for “MKQPPLEDQYQMFGSIALSAFGAELLRHSLLPELLGKDAASLLYWAGKQLARRYPLGTLDDVAVFFERAGWGELSTGEERNDELYIELSGPIIAARFSLYGSCSFQLEAGFLAQQIEQQKRFVTEAVELPPKRDGKARILVKWDRKQAIE” was “not soluble”; that for “MLRCADGALYTGVSTDVARRYRQHQAGKGARYTRLNPPLAVELVIEYPDRSAALRAEHAFKRLSAAAKRDFLRAHGDAGPSSLEHHHHHH” was “not soluble”.
